For the experiment, the target named is T1, hGOAT-eGFP (human ghrelin O-acyltransferase with C-terminal eGFP and His10 tag) (human) (UniProt Q96T53).
T1 sequence: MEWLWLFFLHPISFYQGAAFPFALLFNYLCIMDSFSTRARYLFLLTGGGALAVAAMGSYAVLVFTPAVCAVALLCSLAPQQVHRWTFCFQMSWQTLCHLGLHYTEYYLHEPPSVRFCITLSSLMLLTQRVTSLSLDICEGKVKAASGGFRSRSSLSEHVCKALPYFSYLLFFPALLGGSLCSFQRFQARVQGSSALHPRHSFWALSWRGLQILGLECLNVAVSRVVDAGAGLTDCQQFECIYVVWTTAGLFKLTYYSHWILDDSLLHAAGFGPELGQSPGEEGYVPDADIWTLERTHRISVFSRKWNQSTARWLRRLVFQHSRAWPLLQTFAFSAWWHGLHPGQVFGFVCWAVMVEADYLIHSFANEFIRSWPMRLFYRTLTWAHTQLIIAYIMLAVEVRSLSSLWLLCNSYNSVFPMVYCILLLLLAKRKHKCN

Where no end group is shown, it is not given here.

B1: fluorescently labeled ghrelin mimetic peptide GSSFLC-NH2 (acrylodan-labelled) (peptide)
peptide: GSSFLC-NH2
modifications: not fully specified (residue 6); printed as GSSFLC_NH2_; ends and bridges not checked; also: acrylodan label, site not given here
The molecule B1 showed a ghrelin octanoylation activity of the MEGA-9 solubilisation supernatant of hGOAT-eGFP (HPLC, conversion of the fluorescent peptide substrate to the octanoylated product) of 20%.

The values are drawn from article PMC10685452.
